The results in this text go back to patent US20110002929A1 (published 2011).

First the molecules themselves.
T1: human RANK-L (human, UniProt O14788 140-317)
T1 chain: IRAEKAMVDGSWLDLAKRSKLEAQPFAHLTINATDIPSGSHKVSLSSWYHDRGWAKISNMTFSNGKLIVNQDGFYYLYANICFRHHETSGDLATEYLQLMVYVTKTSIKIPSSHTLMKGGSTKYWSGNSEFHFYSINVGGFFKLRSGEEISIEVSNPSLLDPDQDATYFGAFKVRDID

B1: RANKL13hum5 (VHH)
VHH: EVQLVESGGGLVQPGGSLRLSCAASGFTFSSYPMGWFRQAPGKGREFVSSITGSGGSTYYADSVKGRFTISRDNAKNTLYLQMNSLRPEDTAVYYCAAYIRPDTYLSRDYRKYDYWGQGTLVTVSS
B2: RANKL13 (VHH)
VHH: B1 VHH with P14A, F27R, S30R, G44E, S49A, L79V, Y95S, L121Q
B3: RANKL13hum5_D62E (VHH)
VHH: B1 VHH with D62E

Changes are numbered by the printed parent chain.

For this assay, the target named is T1, human RANK-L. Description: AlphaScreen competition.
For orientation: IC50 means the concentration needed to halve the response being measured. B1 registered an IC50 of 0.167 nM. In turn, B2 yielded an IC50 of 0.228 nM. In the case of B3, the IC50 is 0.156 nM.
